# Test results: the supplement of paper PMC5998384
# Legend:
# HeLa Kyoto [1] = experiment: solubility in G1/S (NP-40 vs SDS abundance) (log2 ratio); higher = more soluble; details: cell cycle stage: G1/S
# HeLa Kyoto [2] = experiment: thermal stability score vs G1/S (z-score of summed log2 fold changes over temperatures); higher = more thermally stable than in G1/S
# HeLa Kyoto [3] = experiment: solubility change mitosis vs G1/S (difference of NP-40 vs SDS log2 ratios) (log2 ratio difference); higher = more soluble in mitosis
# HeLa Kyoto [4] = experiment: melting temperature (median over replicates), in situ; higher = more thermally stable
# [5] = cell cycle stage: early G1 (4.5 h after nocodazole release)
# 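Throughout, for melting temperature (median over replicates), in situ: HeLa Kyoto cells synchronized by double thymidine or nocodazole block, proteins quantified by TMT10plex mass spectrometry, three independent biological replicates.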
# 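Throughout, for solubility change mitosis vs G1/S (difference of NP-40 vs SDS log2 ratios): synchronized HeLa Kyoto cells (double thymidine block for G1/S, nocodazole release for mitosis), protein amounts in NP-40 versus SDS lysates quantified by mass spectrometry, three biological replicates.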
# 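Throughout, for solubility in G1/S (NP-40 vs SDS abundance): HeLa Kyoto cells arrested at G1/S by double thymidine block, proteins quantified by TMT10plex mass spectrometry in mild NP-40 versus SDS extracts, three biological replicates.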
# 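Throughout, for thermal stability score vs G1/S (z-score of summed log2 fold changes over temperatures): synchronized HeLa Kyoto cells, proteins quantified by TMT10plex mass spectrometry, three biological replicates, mitosis taken 0.5 h after nocodazole release, G1/S directly after double thymidine block.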
sequence,measurement,setting,value
MGEIEQRPTPGSRLGAPENSGISTLERGQKPPPTPSGKLVSIKIQMLDDTQEAFEVPQRAPGKVLLDAVCNHLNLVEGDYFGLEFPDHKKITVWLDLLKPIVKQIRRPKHVVVKFVVKFFPPDHTQLQEELTRYLFALQVKQDLAQGRLTCNDTSAALLISHIVQSEIGDFDEALDREHLAKNKYIPQQDALEDKIVEFHHNHIGQTPAESDFQLLEIARRLEMYGIRLHPAKDREGTKINLAVANTGILVFQGFTKINAFNWAKVRKLSFKRKRFLIKLRPDANSAYQDTLEFLMASRDFCKSFWKICVEHHAFFRLFEEPKPKPKPVLFSRGSSFRFSGRTQKQVLDYVKEGGHKKVQFERKHSKIHSIRSLASQPTELNSEVLEQSQQSTSLTFGEGAESPGGQSCRRGKEPKVSAGEPGSHPSPAPRRSPAGNKQADGAASAPTEEEEEVVKDRTQQSKPQPPQPSTGSLTGSPHLSELSVNSQGGVAPANVTLSPNLSPDTKQASPLISPLLNDQACPRTDDEDEGRRKRFPTDKAYFIAKEVSTTERTYLKDLEVITSWFQSTVSKEDAMPEALKSLIFPNFEPLHKFHTNFLKEIEQRLALWEGRSNAQIRDYQRIGDVMLKNIQGMKHLAAHLWKHSEALEALENGIKSSRRLENFCRDFELQKVCYLPLNTFLLRPLHRLMHYKQVLERLCKHHPPSHADFRDCRAALAEITEMVAQLHGTMIKMENFQKLHELKKDLIGIDNLVVPGREFIRLGSLSKLSGKGLQQRMFFLFNDVLLYTSRGLTASNQFKVHGQLPLYGMTIEESEDEWGVPHCLTLRGQRQSIIVAASSRSEMEKWVEDIQMAIDLAEKSSSPAPEFLASSPPDNKSPDEATAADQESEDDLSASRTSLERQAPHRGNTMVHVCWHRNTSVSMVDFSIAVENQLSGNLLRKFKNSNGWQKLWVVFTNFCLFFYKSHQDNHPLASLPLLGYSLTIPSESENIQKDYVFKLHFKSHVYYFRAESEYTFERWMEVIRSATSSASRPHVLSHKESLVY [FARP1],solubility in G1/S (log2),HeLa Kyoto [1],-0.198
same,thermal stability score,HeLa Kyoto [2]; [5],1.1
same,thermal stability score,HeLa Kyoto [2]; cell cycle stage: mitosis,2.25
same,solubility change mitosis (log2),HeLa Kyoto [3],-0.0824
same,melting temperature,HeLa Kyoto [4]; cell cycle stage: G1/S,49.2 °C
same,melting temperature,HeLa Kyoto [4]; cell cycle stage: mitosis,49.1 °C
MGFLQLLVVAVLASEHRVAGAAEVFGNSSEGLIEFSVGKFRYFELNRPFPEEAILHDISSNVTFLIFQIHSQYQNTTVSFSPTLLSNSSETGTASGLVFILRPEQSTCTWYLGTSGIQPVQNMAILLSYSERDPVPGGCNLEFDLDIDPNIYLEYNFFETTIKFAPANLGYARGVDPPPCDAGTDQDSRWRLQYDVYQYFLPENDLTEEMLLKHLQRMVSVPQVKASALKVVTLTANDKTSVSFSSLPGQGVIYNVIVWDPFLNTSAAYIPAHTYACSFEAGEGSCASLGRVSSKVFFTLFALLGFFICFFGHRFWKTELFFIGFIIMGFFFYILITRLTPIKYDVNLILTAVTGSVGGMFLVAVWWRFGILSICMLCVGLVLGFLISSVTFFTPLGNLKIFHDDGVFWVTFSCIAILIPVVFMGCLRILNILTCGVIGSYSVVLAIDSYWSTSLSYITLNVLKRALNKDFHRAFTNVPFQTNDFIILAVWGMLAVSGITLQIRRERGRPFFPPHPYKLWKQERERRVTNILDPSYHIPPLRERLYGRLTQIKGLFQKEQPAGERTPLLL [TM7SF3],solubility in G1/S (log2),HeLa Kyoto [1],-0.147
same,thermal stability score,HeLa Kyoto [2]; [5],-2.81
same,thermal stability score,HeLa Kyoto [2]; cell cycle stage: mitosis,-4.36
same,solubility change mitosis (log2),HeLa Kyoto [3],-0.244
same,melting temperature,HeLa Kyoto [4]; cell cycle stage: G1/S,56.8 °C
same,melting temperature,HeLa Kyoto [4]; cell cycle stage: mitosis,55.3 °C
MGGAVVDEGPTGVKAPDGGWGWAVLFGCFVITGFSYAFPKAVSVFFKELIQEFGIGYSDTAWISSILLAMLYGTGPLCSVCVNRFGCRPVMLVGGLFASLGMVAASFCRSIIQVYLTTGVITGLGLALNFQPSLIMLNRYFSKRRPMANGLAAAGSPVFLCALSPLGQLLQDRYGWRGGFLILGGLLLNCCVCAALMRPLVVTAQPGSGPPRPSRRLLDLSVFRDRGFVLYAVAASVMVLGLFVPPVFVVSYAKDLGVPDTKAAFLLTILGFIDIFARPAAGFVAGLGKVRPYSVYLFSFSMFFNGLADLAGSTAGDYGGLVVFCIFFGISYGMVGALQFEVLMAIVGTHKFSSAIGLVLLMEAVAVLVGPPSGGKLLDATHVYMYVFILAGAEVLTSSLILLLGNFFCIRKKPKEPQPEVAAAEEEKLHKPPADSGVDLREVEHFLKAEPEKNGEVVHTPETSV [SLC16A3],solubility in G1/S (log2),HeLa Kyoto [1],0.106
same,thermal stability score,HeLa Kyoto [2]; [5],-4.29
same,thermal stability score,HeLa Kyoto [2]; cell cycle stage: mitosis,-4.22
same,solubility change mitosis (log2),HeLa Kyoto [3],-0.161
same,melting temperature,HeLa Kyoto [4]; cell cycle stage: G1/S,60.1 °C
same,melting temperature,HeLa Kyoto [4]; cell cycle stage: mitosis,61.9 °C
MGGFFSSIFSSLFGTREMRILILGLDGAGKTTILYRLQVGEVVTTIPTIGFNVETVTYKNLKFQVWDLGGQTSIRPYWRCYYSNTDAVIYVVDSCDRDRIGISKSELVAMLEEEELRKAILVVFANKQDMEQAMTSSEMANSLGLPALKDRKWQIFKTSATKGTGLDEAMEWLVETLKSRQ [ARL1],solubility in G1/S (log2),HeLa Kyoto [1],-0.143
same,thermal stability score,HeLa Kyoto [2]; [5],2.08
same,thermal stability score,HeLa Kyoto [2]; cell cycle stage: mitosis,-0.342
same,solubility change mitosis (log2),HeLa Kyoto [3],-0.202
same,melting temperature,HeLa Kyoto [4]; cell cycle stage: G1/S,50.3 °C
same,melting temperature,HeLa Kyoto [4]; cell cycle stage: mitosis,50.9 °C
MGGKNKKHKAPAAAVVRAAVSASRAKSAEAGIAGEAQSKKPVSRPATAAAAAAGSREPRVKQGPKIYSFNSTNDSSGPANLDKSILKVVINNKLEQRIIGVINEHKKQNNDKGMISGRLTAKKLQDLYMALQAFSFKTKDIEDAMTNTLLYGGDLHSALDWLCLNLSDDALPEGFSQEFEEQQPKSRPKFQSPQIQATISPPLQPKTKTYEEDPKSKPKKEEKNMEVNMKEWILRYAEQQNEEEKNENSKSLEEEEKFDPNERYLHLAAKLLDAKEQAATFKLEKNKQGQKEAQEKIRKFQREMETLEDHPVFNPAMKISHQQNERKKPPVATEGESALNFNLFEKSAAATEEEKDKKKEPHDVRNFDYTARSWTGKSPKQFLIDWVRKNLPKSPNPSFEKVPVGRYWKCRVRVIKSEDDVLVVCPTILTEDGMQAQHLGATLALYRLVKGQSVHQLLPPTYRDVWLEWSDAEKKREELNKMETNKPRDLFIAKLLNKLKQQQQQQQQHSENKRENSEDPEESWENLVSDEDFSALSLESANVEDLEPVRNLFRKLQSTPKYQKLLKERQQLPVFKHRDSIVETLKRHRVVVVAGETGSGKSTQVPHFLLEDLLLNEWEASKCNIVCTQPRRISAVSLANRVCDELGCENGPGGRNSLCGYQIRMESRACESTRLLYCTTGVLLRKLQEDGLLSNVSHVIVDEVHERSVQSDFLLIILKEILQKRSDLHLILMSATVDSEKFSTYFTHCPILRISGRSYPVEVFHLEDIIEETGFVLEKDSEYCQKFLEEEEEVTINVTSKAGGIKKYQEYIPVQTGAHADLNPFYQKYSSRTQHAILYMNPHKINLDLILELLAYLDKSPQFRNIEGAVLIFLPGLAHIQQLYDLLSNDRRFYSERYKVIALHSILSTQDQAAAFTLPPPGVRKIVLATNIAETGITIPDVVFVIDTGRTKENKYHESSQMSSLVETFVSKASALQRQGRAGRVRDGFCFRMYTRERFEGFMDYSVPEILRVPLEELCLHIMKCNLGSPEDFLSKALDPPQLQVISNAMNLLRKIGACELNEPKLTPLGQHLAALPVNVKIGKMLIFGAIFGCLDPVATLAAVMTEKSPFTTPIGRKDEADLAKSALAMADSDHLTIYNAYLGWKKARQEGGYRSEITYCRRNFLNRTSLLTLEDVKQELIKLVKAAGFSSSTTSTSWEGNRASQTLSFQEIALLKAVLVAGLYDNVGKIIYTKSVDVTEKLACIVETAQGKAQVHPSSVNRDLQTHGWLLYQEKIRYARVYLRETTLITPFPVLLFGGDIEVQHRERLLSIDGWIYFQAPVKIAVIFKQLRVLIDSVLRKKLENPKMSLENDKILQIITELIKTENN [DHX29],solubility in G1/S (log2),HeLa Kyoto [1],-0.444
same,thermal stability score,HeLa Kyoto [2]; [5],-0.474
same,thermal stability score,HeLa Kyoto [2]; cell cycle stage: mitosis,-0.738
same,solubility change mitosis (log2),HeLa Kyoto [3],0.00585
same,melting temperature,HeLa Kyoto [4]; cell cycle stage: G1/S,51.7 °C
same,melting temperature,HeLa Kyoto [4]; cell cycle stage: mitosis,50.7 °C
